This passage reports abundance fitness results from the Human Domainome abundance scans (Beltran et al. 2025).

± gives the uncertainty stated by the source.

Sequences and labels used below:
B1: Zinc finger homeobox protein 3, residues 2147 to 2202; numbered along this chain, Q15911 (parent)
chain: RPRTRITDDQLRVLRQYFDINNSPSEEQIKEMADKSGLPQKVIKHWFRNTLFKERQ

The variants in this data set derive from B1. In words: abundance fitness (aPCA) (normalised: wild type 0, dead -1); higher = more abundant; growth selection in yeast, the domain comes from the species named. The note with it: Homo sapiens.
On to RPRTRITDDQLRVLRQYFDINNSPSEEQIKEMADKSGLPQKVIKHQFRNTLFKERQ [W46Q], for which the abundance fitness is -0.576 ± 0.14.

Take RPRTRITDDQLRVLRQYFDINNSPSEEQIKEMADKSGLPQKVIKHKFRNTLFKERQ [W46K]: the abundance fitness was -0.738 ± 0.14.

Take RPRTRITDDQLRVLRQYFDINNSPSEEQIKEMADKSGLPQKVIKLWFRNTLFKERQ [H45L]: the abundance fitness was -0.032 ± 0.079.

Turning to RPRTRITDDQLRVLRQYFDINNSPSEEQIKEMADKSGLPQKVIKRWFRNTLFKERQ [H45R], the abundance fitness was -0.052 ± 0.091.

In the case of RPRTRITDDQLRVLRQYFDINNSPSEEQIKEMADKSGLPQKVIKVWFRNTLFKERQ [H45V], the abundance fitness came out at 0.015 ± 0.078.

As for RPRTRITDDQLRVLRQYFDINNSPSEEQIKEMADKSGLPQKVIKGWFRNTLFKERQ [H45G], the abundance fitness is 0.007 ± 0.085.

For RPRTRITDDQLRVLRQYFDINNSPSEEQIKEMADKSGLPQKVIKEWFRNTLFKERQ [H45E], the abundance fitness amounted to 0.106 ± 0.099.

Turning to RPRTRITDDQLRVLRQYFDINNSPSEEQIKEMADKSGLPQKVIKPWFRNTLFKERQ [H45P], the abundance fitness is -0.377 ± 0.11.

For RPRTRITDDQLRVLRQYFDINNSPSEEQIKEMADKSGLPQKVIKCWFRNTLFKERQ [H45C], the abundance fitness was -0.194 ± 0.12.

As to RPRTRITDDQLRVLRQYFDINNSPSEEQIKEMADKSGLPQKVIKWWFRNTLFKERQ [H45W], the abundance fitness was determined as 0.028 ± 0.099.

RPRTRITDDQLRVLRQYFDINNSPSEEQIKEMADKSGLPQKVIKQWFRNTLFKERQ [H45Q]: the abundance fitness came out at 0.085 ± 0.1.

In the case of RPRTRITDDQLRVLRQYFDINNSPSEEQIKEMADKSGLPQKVIKKWFRNTLFKERQ [H45K], the abundance fitness is 0.141 ± 0.11.

As to RPRTRITDDQLRVLRQYFDINNSPSEEQIKEMADKSGLPQKVIKMWFRNTLFKERQ [H45M], the abundance fitness worked out at 0.029 ± 0.1.

For RPRTRITDDQLRVLRQYFDINNSPSEEQIKEMADKSGLPQKVIKSWFRNTLFKERQ [H45S], the abundance fitness amounted to 0.028 ± 0.086.

Turning to RPRTRITDDQLRVLRQYFDINNSPSEEQIKEMADKSGLPQKVIKFWFRNTLFKERQ [H45F], the abundance fitness amounted to 0.009 ± 0.14.

Regarding RPRTRITDDQLRVLRQYFDINNSPSEEQIKEMADKSGLPQKVIKDWFRNTLFKERQ [H45D], the abundance fitness worked out at 0.109 ± 0.12.

Take RPRTRITDDQLRVLRQYFDINNSPSEEQIKEMADKSGLPQKVIKIWFRNTLFKERQ [H45I]: the abundance fitness is -0.09 ± 0.13.

Take RPRTRITDDQLRVLRQYFDINNSPSEEQIKEMADKSGLPQKVIKAWFRNTLFKERQ [H45A]: the abundance fitness turned out to be 0.039 ± 0.077.

Turning to RPRTRITDDQLRVLRQYFDINNSPSEEQIKEMADKSGLPQKVIKYWFRNTLFKERQ [H45Y], the abundance fitness was -0.036 ± 0.12.

Regarding RPRTRITDDQLRVLRQYFDINNSPSEEQIKEMADKSGLPQSVIKHWFRNTLFKERQ [K41S], the abundance fitness was -0.02 ± 0.11.

For RPRTRITDDQLRVLRQYFDINNSPSEEQIKEMADKSGLPQRVIKHWFRNTLFKERQ [K41R], the abundance fitness is -0.142 ± 0.083.

Turning to RPRTRITDDQLRVLRQYFDINNSPSEEQIKEMADKSGLPQYVIKHWFRNTLFKERQ [K41Y], the abundance fitness is -0.389 ± 0.21.

With RPRTRITDDQLRVLRQYFDINNSPSEEQIKEMADKSGLPQWVIKHWFRNTLFKERQ [K41W], the abundance fitness was -0.361 ± 0.12.

Turning to RPRTRITDDQLRVLRQYFDINNSPSEEQIKEMADKSGLPQVVIKHWFRNTLFKERQ [K41V], the abundance fitness is -0.108 ± 0.091.

In the case of RPRTRITDDQLRVLRQYFDINNSPSEEQIKEMADKSGLPQQVIKHWFRNTLFKERQ [K41Q], the abundance fitness was determined as 0.095 ± 0.15.

On to RPRTRITDDQLRVLRQYFDINNSPSEEQIKEMADKSGLPQPVIKHWFRNTLFKERQ [K41P], for which the abundance fitness is -0.259 ± 0.12.

RPRTRITDDQLRVLRQYFDINNSPSEEQIKEMADKSGLPQKTIKHWFRNTLFKERQ [V42T]: the abundance fitness was -0.027 ± 0.13.

In the case of RPRTRITDDQLRVLRQYFDINNSPSEEQIKEMADKSGLPQKIIKHWFRNTLFKERQ [V42I], the abundance fitness is -0.074 ± 0.12.

For the variant RPRTRITDDQLRVLRQYFDINNSPSEEQIKEMADKSGLPQKKIKHWFRNTLFKERQ [V42K], the abundance fitness is -0.051 ± 0.15.

Regarding RPRTRITDDQLRVLRQYFDINNSPSEEQIKEMADKSGLPQKSIKHWFRNTLFKERQ [V42S], the abundance fitness is -0.139 ± 0.09.

For RPRTRITDDQLRVLRQYFDINNSPSEEQIKEMADKSGLPQKNIKHWFRNTLFKERQ [V42N], the abundance fitness was -0.15 ± 0.17.

As to RPRTRITDDQLRVLRQYFDINNSPSEEQIKEMADKSGLPQKWIKHWFRNTLFKERQ [V42W], the abundance fitness was -0.119 ± 0.095.

Consider RPRTRITDDQLRVLRQYFDINNSPSEEQIKEMADKSGLPQKDIKHWFRNTLFKERQ [V42D], for which the abundance fitness is 0.094 ± 0.15.

For the variant RPRTRITDDQLRVLRQYFDINNSPSEEQIKEMADKSGLPQKHIKHWFRNTLFKERQ [V42H], the abundance fitness is -0.374 ± 0.19.

As for RPRTRITDDQLRVLRQYFDINNSPSEEQIKEMADKSGLPQKMIKHWFRNTLFKERQ [V42M], the abundance fitness is -0.218 ± 0.15.

With RPRTRITDDQLRVLRQYFDINNSPSEEQIKEMADKSGLPQKPIKHWFRNTLFKERQ [V42P], the abundance fitness was -0.618 ± 0.18.

RPRTRITDDQLRVLRQYFDINNSPSEEQIKEMADKSGLPQKYIKHWFRNTLFKERQ [V42Y]: the abundance fitness was -0.18 ± 0.14.

As for RPRTRITDDQLRVLRQYFDINNSPSEEQIKEMADKSGLPQKLIKHWFRNTLFKERQ [V42L], the abundance fitness is -0.103 ± 0.092.

Consider RPRTRITDDQLRVLRQYFDINNSPSEEQIKEMADKSGLPQKAIKHWFRNTLFKERQ [V42A], for which the abundance fitness was -0.098 ± 0.11.

Consider RPRTRITDDQLRVLRQYFDINNSPSEEQIKEMADKSGLPQKRIKHWFRNTLFKERQ [V42R], for which the abundance fitness was -0.028 ± 0.09.

For the variant RPRTRITDDQLRVLRQYFDINNSPSEEQIKEMADKSGLPQKCIKHWFRNTLFKERQ [V42C], the abundance fitness came to 0.058 ± 0.1.

In the case of RPRTRITDDQLRVLRQYFDINNSPSEEQIKEMADKSGLPQKFIKHWFRNTLFKERQ [V42F], the abundance fitness is -0.293 ± 0.18.

For RPRTRITDDQLRVLRQYFDINNSPSEEQIKEMADKSGLPQKVIKHWIRNTLFKERQ [F47I], the abundance fitness is -0.265 ± 0.18.

For RPRTRITDDQLRVLRQYFDINNSPSEEQIKEMADKSGLPQKVIKHWHRNTLFKERQ [F47H], the abundance fitness was -0.699 ± 0.16.

For the variant RPRTRITDDQLRVLRQYFDINNSPSEEQIKEMADKSGLPQKVIKHWARNTLFKERQ [F47A], the abundance fitness is -0.482 ± 0.094.

For RPRTRITDDQLRVLRQYFDINNSPSEEQIKEMADKSGLPQKVIKHWDRNTLFKERQ [F47D], the abundance fitness was -0.819 ± 0.19.

As to RPRTRITDDQLRVLRQYFDINNSPSEEQIKEMADKSGLPQKVIKHWCRNTLFKERQ [F47C], the abundance fitness is -0.169 ± 0.11.
